This note sets out measurements from paper PMC3932411.

Data set [1] can be described thus: I-V relationship. The note with it: glycan lost; control: wild type.
Data set [2] is described as follows: cell surface biotinylation, Western blot. The note with it: glycan lost; control: wild type.

B1: TRPM5: N932Q (protein)
parent chain: MQDVQGPRPGSPGDAEDRRELGLHRGEVNFGGSGKKRGKFVRVPSGVAPSVLFDLLLAEWHLPAPNLVVSLVGEEQPFAMKSWLRDVLRKGLVKAAQSTGAWILTSALRVGLARHVGQAVRDHSLASTSTKVRVVAVGMASLGRVLHRRILEEAQEDFPVHYPEDDGGSQGPLCSLDSNLSHFILVEPGPPGKGDGLTELRLRLEKHISEQRAGYGGTGSIEIPVLCLLVNGDPNTLERISRAVEQAAPWLILVGSGGIADVLAALVNQPHLLVPKVAEKQFKEKFPSKHFSWEDIVRWTKLLQNITSHQHLLTVYDFEQEGSEELDTVILKALVKACKSHSQEPQDYLDELKLAVAWDRVDIAKSEIFNGDVEWKSCDLEEVMVDALVSNKPEFVRLFVDNGADVADFLTYGRLQELYRSVSRKSLLFDLLQRKQEEARLTLAGLGTQQAREPPAGPPAFSLHEVSRVLKDFLQDACRGFYQDGRPGDRRRAEKGPAKRPTGQKWLLDLNQKSENPWRDLFLWAVLQNRHEMATYFWAMGQEGVAAALAACKILKEMSHLETEAEAARATREAKYERLALDLFSECYSNSEARAFALLVRRNRCWSKTTCLHLATEADAKAFFAHDGVQAFLTRIWWGDMAAGTPILRLLGAFLCPALVYTNLITFSEEAPLRTGLEDLQDLDSLDTEKSPLYGLQSRVEELVEAPRAQGDRGPRAVFLLTRWRKFWGAPVTVFLGNVVMYFAFLFLFTYVLLVDFRPPPQGPSGPEVTLYFWVFTLVLEEIRQGFFTDEDTHLVKKFTLYVGDNWNKCDMVAIFLFIVGVTCRMLPSAFEAGRTVLAMDFMVFTLRLIHIFAIHKQLGPKIIVVERMMKDVFFFLFFLSVWLVAYGVTTQALLHPHDGRLEWIFRRVLYRPYLQIFGQIPLDEIDEARVNCSTHPLLLEDSPSCPSLYANWLVILLLVTFLLVTNVLLMNLLIAMFSYTFQVVQGNADMFWKFQRYNLIVEYHERPALAPPFILLSHLSLTLRRVFKKEAEHKREHLERDLPDPLDQKVVTWETVQKENFLSKMEKRRRDSEGEVLRKTAHRVDFIAKYLGGLREQEKRIKCLESQINYCSVLVSSVADVLAQGGGPRSSQHCGEGSQLVAADHRGGLDGWEQPGAGQPPSDT
As for B1, the “other: channel biophysical properties” value in data set [1] is “no change”. The localisation_or_trafficking result in data set [2] is reported as “no change”.
